Reference: patent US20210340238A1, “TGFß1 INHIBITORS AND USE THEREOF” (Scholar Rock, Inc., priority 2018, published 2021)
Residue numbers refer to the chain shown, from its start. Several values for one entry are separate records, joined by “and”; a condition that tells them apart may be missing. Identical values can stand only once.

B1: Ab19: monoclonal antibody binding proTGFβ1 complexes; VH SEQ ID NO: 234, VL SEQ ID NO: 15 (antibody, V domains shown)
VH: QVQLVESGGGVVQPGRSLRLSCAASGFTFSSFAMTWVRQAPGKGLEWVSAISGSGAATYFADSVKGRFTISRDNSKNTLYLQMNSLRAEDTAVYYCARVSSGHWDFDEWGQGTLVTVSS
VL: DIQLTQSPSSLSASVGDRVTITCRASQSISSYLNWYQQKPGKAPKLLIYAASNLQSGVPSRFSGSGSGTDFTLTISSLQPEDFATYYCQQTYTVPLTFGGGTKVEIK
B2: Ab20: monoclonal antibody binding proTGFβ1 complexes; VH SEQ ID NO: 236, VL SEQ ID NO: 15 (antibody, V domains shown)
VH: EVQLLESGGGLVQPGGSLRLSCAASGFTFSAYAMTWVRQAPGKGLEWVSAISGSGGVTYYADSVKGRFTISRDNSKNTLYLQMNSLRAEDTAVYYCARVSSGHWDYDYWGQGTLVTVSS
VL: B1 VL
B3: Ab11: monoclonal antibody binding proTGFβ1 complexes; VH SEQ ID NO: 216, VL SEQ ID NO: 15 (antibody, V domains shown)
VH: B2 VH with S30R, A31N, T35S, A50S, V57A, Y106F
VL: B1 VL
B4: Ab12: monoclonal antibody binding proTGFβ1 complexes; VH SEQ ID NO: 212, VL SEQ ID NO: 15 (antibody, V domains shown)
VH: B1 VH with S31D, F32Y, T35V, A56F, A57T, F60Y, E108Y
VL: B1 VL
B5: Ab15: monoclonal antibody binding proTGFβ1 complexes; VH SEQ ID NO: 226, VL SEQ ID NO: 15 (antibody, V domains shown)
VH: B2 VH with L5V, L11V, G16R, A31D, T35V, G56F, V57T, Y106F
VL: B1 VL
B6: Ab18: monoclonal antibody binding proTGFβ1 complexes; VH SEQ ID NO: 232, VL SEQ ID NO: 15 (antibody, V domains shown)
VH: B1 VH with S31D, F32Y, T35V, R98T, E108Y
VL: B1 VL
B7: Ab14: monoclonal antibody binding proTGFβ1 complexes; VH SEQ ID NO: 224, VL SEQ ID NO: 223 (antibody, V domains shown)
VH: B2 VH with S54T, V57S, Y106F
VL: B1 VL with L4M, N53S, T91V, T93D, V94P
B8: Ab17: monoclonal antibody binding proTGFβ1 complexes; VH SEQ ID NO: 230, VL SEQ ID NO: 15 (antibody, V domains shown)
VH: B1 VH with Q1E, V5L, R16G, E108Y
VL: B1 VL
B9: Ab13: monoclonal antibody binding proTGFβ1 complexes; VH SEQ ID NO: 222, VL SEQ ID NO: 223 (antibody, V domains shown)
VH: B2 VH with S30A, A31D, G53S, S54F, G55A, G56S, V57A, T58I, Y106F
VL: B1 VL with L4M, N53S, T91V, T93D, V94P
B10: Ab16: monoclonal antibody binding proTGFβ1 complexes; VH SEQ ID NO: 228, VL SEQ ID NO: 15 (antibody, V domains shown)
VH: B2 VH with A31N, T35S, G56F, V57T, Y106F
VL: B1 VL

test system: Matrix-associated proTGFβ1 vs Cell-associated proTGFβ1; test: MSD-SET binding, matrix vs cell bias (G/D); set-up: species or system human; settings: ratio of cell average KD to ECM average KD
Excerpt: (§1) Column (A) of the table provides monoclonal antibodies with discrete amino acid sequences. […] Columns (B), (C), (E) and (F) provide affinities of each of the listed antibodies, measured in KD, towards the antigen complex as indicated, respectively. […] Similarly, Average KD values calculated from (E) and (F) are shown in the corresponding column (G), which collectively represents affinities of the antibodies to cell-surface or cell-associated proTGF complexes. Finally, relative ratios between the average KD values from columns (D) and (G) are expressed as fold bias” in column (H). Thus, the greater the numerical of column (H) is, the greater bias exists for the particular antibody, when comparing binding preferences of the antibody for matrix-associated complexes to cell-surface complexes. This is one way of quantitatively representing and comparing inherent bias of antibodies to their target complexes. Such analyses may be useful in guiding the selection process for a candidate antibody for particular therapeutic use. Select antibodies of the present disclosure, as measured by MSD-SET, show context-bias (i.e., greater than five-fold bias) or unbias (i.e., less than 5-fold bias) toward matrix-associated complexes over cell-associated complexes. […] Without being bound by a particular theory, the differences in the kinetics of the assays and/or differences in the nature of recombinant proteins may account for the noticeable differences seen in Ab19 binding to hGARP complexes observed in the above Octet assay (see Table 6) compared to the below MSD-SET assay (see Table 7 below). For example, the Octet assay measures kinetic on and off rates, while the MSD-SET assay measures binding at equilibrium. In addition, the recombinant antibodies used in the Octet assay were expressed as IgG1 antibodies in yeast, while the antibodies used in the MSD assay were expressed as IgG4 antibodies in mammalian cells.

| Molecule | (H) G/D (fold bias) |
| --- | --- |
| B1 | 1.675 fold and 1.68 fold |
| B2 | 6.75 fold |
| B3 | 3.87 fold |
| B4 | 3.40 fold |

test system: Matrix-associated proTGFβ1 vs Cell-associated proTGFβ1; test: Octet binding, matrix vs cell bias (G/D); set-up: species or system human; settings: ratio of cell average KD to ECM average KD
Excerpt: (§2) Column (A) of the table provides monoclonal antibodies with discrete amino acid sequences. […] Columns (B), (C), (E) and (F) provide affinities of each of the listed antibodies, measured in KD, towards the antigen complex as indicated, respectively. […] Average KD values calculated from (B) and (C) are shown in the corresponding column (D), which collectively represents affinities of the antibodies to ECM- or matrix-associated proTGFβ1 complexes. Similarly, Average KD values calculated from (E) and (F) are shown in the corresponding column (G), which collectively represents affinities of the antibodies to cell-surface or cell-associated proTGF complexes. Finally, relative ratios between the average KD values from columns (D) and (G) are expressed as fold bias” in column (H). Thus, the greater the numerical of column (H) is, the greater bias exists for the particular antibody, when comparing binding preferences of the antibody for matrix-associated complexes to cell-surface complexes. This is one way of quantitatively representing and comparing inherent bias of antibodies to their target complexes. Such analyses may be useful in guiding the selection process for a candidate antibody for particular therapeutic use.

| Molecule | (H) G/D (fold bias) [fold] |
| --- | --- |
| B1 | 34.47 |
| B5 | 24.25 |
| B6 | 22.00 |
| B4 | 22.897 |
| B7 | 17.36 |
| B8 | 24.288 |
| B9 | 21.71 |
| B10 | 15.307 |

target: Matrix-associated proTGFβ1; test: Octet binding, ECM average of hLTBP1 and hLTBP3 complexes; set-up: species or system human; settings: average KD of (B) and (C), read-out: (D) ECM AVRG
Excerpt: as §2

| Kd [nM] | Molecule |
| --- | --- |
| 0.172 | B1 |
| 0.162 | B2 |
| 0.159 | B5 |
| 0.161 | B3 |
| 0.284 | B6 |
| 0.17 | B4 |
| 0.341 | B7 |
| 0.191 | B8 |
| 0.263 | B9 |
| 0.157 | B10 |

test system: Cell-associated proTGFβ1; test: MSD-SET binding, cell average of hGARP and hLRRC33 complexes; set-up: species or system human; settings: average KD of (E) and (F), read-out: (G) Cell AVRG
Excerpt: as §1

| Molecule | Kd [nM] |
| --- | --- |
| B1 | 4.75 |
| B3 | 4.65 |
| B4 | 2.45 |

test system: Cell-associated proTGFβ1; test: Octet binding, cell average of hGARP and hLRRC33 complexes; set-up: species or system human; settings: average KD of (E) and (F), read-out: (G) Cell AVRG
Excerpt: as §2

| Molecule | Kd [nM] |
| --- | --- |
| B1 | 5.95 |
| B2 | 0.715 |
| B5 | 3.86 |
| B3 | 0.699 |
| B6 | 6.26 |
| B4 | 3.89 |
| B7 | 5.92 |
| B8 | 4.64 |
| B9 | 5.7 |
| B10 | 2.4 |

target: Matrix-associated proTGFβ1; test: MSD-SET binding, ECM average of hLTBP1 and hLTBP3 complexes; set-up: species or system human; settings: average KD of (B) and (C), read-out: (D) ECM AVRG
Excerpt: as §1

| Kd [nM] | Molecule |
| --- | --- |
| 2.83 | B1 |
| 0.2 | B2 |
| 0.72 | B4 |
